The text below walks through data of patent US20240376207A1 (JIANGSU HENGRUI PHARMACEUTICALS, published 2024).

The target of experiment [1] is T1, human TIGIT expressed on cells (human, UniProt Q495A1 22-244).
T1 construct: whole, on cells; also called cells overexpressing human TIGIT
T1 sequence (looked up): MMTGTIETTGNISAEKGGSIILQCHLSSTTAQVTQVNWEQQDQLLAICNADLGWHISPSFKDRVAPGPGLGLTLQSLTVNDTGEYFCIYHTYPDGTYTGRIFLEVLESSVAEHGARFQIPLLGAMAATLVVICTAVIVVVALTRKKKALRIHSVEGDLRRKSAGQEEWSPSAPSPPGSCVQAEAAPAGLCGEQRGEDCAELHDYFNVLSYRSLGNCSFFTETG
The experiment can be described thus: FACS, cells overexpressing target. The method, then: (§1) The expression plasmid carrying human or cynomolgus monkey PVRIG gene sequence was transfected into HEK293 cells, and the over-expressing stable transfection monoclonal cell strain was obtained by antibiotic screening and infinite dilution. Overexpressing cells were seeded into a 96-well plate at 2×10⁵ cells/per well. The cells were centrifuged at 300 g for 5 min, the supernatant was then removed, 100 μL of the test antibody was added, and the mixture was incubated at 4° C. for 1 h. The mixture was centrifuged, the supernatant was removed, the plate was washed 3 times with 200 μL of wash buffer (PBS+2% FBS), and then 100 μL of an anti-human IgG secondary antibody (Invitrogen, A-11013) labeled with Alexa Fluor 488 diluted at 1:500 was added. The mixture was incubated at 4° C. for 1 h. The plate was centrifuged, and the supernatant was removed. The plate was washed 3 times with 200 μL of wash buffer (PBS+2% FBS). The cells were resuspended in 100 μL of PBS and tested on a flow cytometer (BD FACS Calibur or BD FACS Canto_II).
(§2) Similarly to Examples 4, 5 and 6, the binding of humanized anti-PVRIG/TIGIT bispecific antibodies to human and cynomolgus monkey TIGIT and blocking of binding of human TIGIT to ligand were detected, where PVRIG protein was replaced with TIGIT and PVRL2 was replaced with PVR.
On the technique in general: Flow cytometry measures light scatter and fluorescence of single cells or particles in a stream.

In experiment [2] the target is T2, cynomolgus monkey TIGIT expressed on cells (cynomolgus monkey, UniProt A0A7N9I9V4 89-312).
T2 construct: whole, on cells; also called cells overexpressing cynomolgus monkey TIGIT
T2 sequence (A0A7N9I9V4 entry or part of it): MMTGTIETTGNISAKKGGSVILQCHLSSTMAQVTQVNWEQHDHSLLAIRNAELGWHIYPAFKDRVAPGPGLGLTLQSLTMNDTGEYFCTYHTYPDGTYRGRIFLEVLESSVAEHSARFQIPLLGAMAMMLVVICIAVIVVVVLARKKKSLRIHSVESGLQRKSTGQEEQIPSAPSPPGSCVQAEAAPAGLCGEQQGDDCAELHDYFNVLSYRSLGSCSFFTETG
The experiment can be described thus: FACS, cells overexpressing target. The method, then: as §1, §2

The target of experiment [3] is T3, his-tagged cynomolgus monkey PVRIG (cyno-PVRIG-his) recombinant protein (cynomolgus monkey).
T3 construct: expressed in HEK293, purified by Ni-NTA; also called Monkey PVRIG-his; cynomolgus monkey PVRIG recombinant protein
T3 chain: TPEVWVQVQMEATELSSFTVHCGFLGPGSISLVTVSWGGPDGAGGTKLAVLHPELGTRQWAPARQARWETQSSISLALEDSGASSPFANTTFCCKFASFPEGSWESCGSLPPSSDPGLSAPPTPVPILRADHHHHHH
The experiment can be described thus: ELISA, coated antigen. The method, then:
(§3) A human, cynomolgus monkey, or mouse PVRIG protein (at a concentration of 1 μg/mL) was coated on a 96-well microplate at 100 μL per well, and incubated overnight at 4° C. The plate was washed three times with wash buffer at 250 μL per well. For each wash, the plate was shaken for 10 s to ensure adequate cleaning. A blocking solution (PBS+0.05% Tween20+1% BSA) was added at 300 μL/well, and the plate was incubated at room temperature for 1 h. The plate was washed three times with wash buffer at 250 μL per well. For each wash, the plate was shaken for 10 s to ensure adequate cleaning. Dilutions of the test anti-PVRIG antibodies were added at 100 μL/well. The plate was incubated at 37° C. for 1 h. The plate was washed three times with wash buffer at 250 μL per well. The […] anti-human IgG secondary antibody (Sigma, A8667) was added at 100 μL per well. The plate was incubated at 37° C. for 1 h. The plate was washed three times with wash buffer at 250 μL per well. TMB was added at 100 μL/well, and the plate was incubated in the dark for 15 min. 0.16 M sulfuric acid was added at 50 μL/well. The OD values at 450 nm were read by using a Thermo MultiSkanFc microplate reader, and the EC₅₀ values of the binding of the anti-PVRIG antibodies to PVRIG were calculated.
(§4) Binding of the humanized anti-PVRIG/TIGIT bispecific antibodies to human and cynomolgus monkey PVRIG and their blocking of the ligand of human PVRIG were detected according to the methods of Examples 4, 5 and 6.
For orientation: In an ELISA, binding on a coated surface is turned into a signal by an enzyme label.

For experiment [4], the target named is T4, his-tagged human PVRIG (h-PVRIG-his) recombinant protein (human, UniProt Q6DKI7 41-171, limits assumed).
T4 construct: bought from Acrobiosystems; also called Human PVRIG-his; human PVRIG recombinant protein; not shown: his tag
T4 sequence (looked up): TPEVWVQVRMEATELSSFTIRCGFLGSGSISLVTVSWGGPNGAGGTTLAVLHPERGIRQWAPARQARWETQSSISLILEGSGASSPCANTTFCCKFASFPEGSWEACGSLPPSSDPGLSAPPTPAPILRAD
The experiment can be described thus: ELISA, coated antigen. On the procedure:
as §3, §4

Experiment [5] concerns the target cynomolgus monkey TIGIT recombinant protein (cynomolgus monkey, UniProt A0A7N9I9V4 89-209). The experiment can be described thus: ELISA, coated antigen. The method, then: as §3, §2
Experiment [6] deals with T5, human TIGIT recombinant protein (human, UniProt Q495A1 22-141, limits assumed).
T5 construct: construct not described; also called human TIGT recombinant protein
T5 sequence (looked up): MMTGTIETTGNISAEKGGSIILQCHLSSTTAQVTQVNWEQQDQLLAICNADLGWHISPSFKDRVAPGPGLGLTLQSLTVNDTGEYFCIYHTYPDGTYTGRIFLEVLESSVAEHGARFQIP
The experiment can be described thus: ELISA, coated antigen. On the procedure: as §3, §2

Sequence of cynomolgus monkey TIGIT recombinant protein (A0A7N9I9V4 entry or part of it): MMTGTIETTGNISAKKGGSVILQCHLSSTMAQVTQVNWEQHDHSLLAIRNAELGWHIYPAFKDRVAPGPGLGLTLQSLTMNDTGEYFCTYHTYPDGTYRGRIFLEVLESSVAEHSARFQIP

B1: humanized anti-PVRIG/TIGIT bispecific antibody 1708-20H5 (bispecific antibody, human IgG4 S228P, kappa)
heavy: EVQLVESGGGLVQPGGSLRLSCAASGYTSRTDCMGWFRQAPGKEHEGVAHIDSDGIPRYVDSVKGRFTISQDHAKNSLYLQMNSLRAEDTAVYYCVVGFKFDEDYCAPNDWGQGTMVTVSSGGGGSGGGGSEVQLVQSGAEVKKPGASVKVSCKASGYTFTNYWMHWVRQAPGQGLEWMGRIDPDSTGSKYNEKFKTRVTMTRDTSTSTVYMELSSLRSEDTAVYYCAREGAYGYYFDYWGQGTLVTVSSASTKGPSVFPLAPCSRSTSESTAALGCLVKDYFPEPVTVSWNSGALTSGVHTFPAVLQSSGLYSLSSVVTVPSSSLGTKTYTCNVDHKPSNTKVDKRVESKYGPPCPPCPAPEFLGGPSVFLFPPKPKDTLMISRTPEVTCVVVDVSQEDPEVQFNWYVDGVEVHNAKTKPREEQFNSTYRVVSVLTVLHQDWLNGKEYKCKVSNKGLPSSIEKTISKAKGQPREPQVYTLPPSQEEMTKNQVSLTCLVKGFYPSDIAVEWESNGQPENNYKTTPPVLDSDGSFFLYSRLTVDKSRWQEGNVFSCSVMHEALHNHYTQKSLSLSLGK
light: DIQMTQSPSSLSASVGDRVTITCRASENIYSYLAWYQQKPGKSPKLLIYNARTLAEGVPSRFSGSGSGTDFTLTISSLQPEDFATYYCQYHSGSPLPFGGGTKVEIKRTVAAPSVFIFPPSDEQLKSGTASVVCLLNNFYPREAKVQWKVDNALQSGNSQESVTEQDSKDSTYSLSSTLTLSKADYEKHKVYACEVTHQGLSSPVTKSFNRGEC
Broadly, the EC50 is the concentration giving half of the maximal effect. As to B1, the concentration giving a half-maximal response (EC50) amounted to 0.01 nM in experiment [1]; 0.009 nM in experiment [2]; 0.144 nM in experiment [3]; 2.47 nM in experiment [4]; 0.112 nM in experiment [5]; 0.145 nM in experiment [6].

B2: humanized anti-PVRIG/TIGIT bispecific antibody 1708-30H2 (bispecific antibody, human IgG4 S228P, kappa)
heavy: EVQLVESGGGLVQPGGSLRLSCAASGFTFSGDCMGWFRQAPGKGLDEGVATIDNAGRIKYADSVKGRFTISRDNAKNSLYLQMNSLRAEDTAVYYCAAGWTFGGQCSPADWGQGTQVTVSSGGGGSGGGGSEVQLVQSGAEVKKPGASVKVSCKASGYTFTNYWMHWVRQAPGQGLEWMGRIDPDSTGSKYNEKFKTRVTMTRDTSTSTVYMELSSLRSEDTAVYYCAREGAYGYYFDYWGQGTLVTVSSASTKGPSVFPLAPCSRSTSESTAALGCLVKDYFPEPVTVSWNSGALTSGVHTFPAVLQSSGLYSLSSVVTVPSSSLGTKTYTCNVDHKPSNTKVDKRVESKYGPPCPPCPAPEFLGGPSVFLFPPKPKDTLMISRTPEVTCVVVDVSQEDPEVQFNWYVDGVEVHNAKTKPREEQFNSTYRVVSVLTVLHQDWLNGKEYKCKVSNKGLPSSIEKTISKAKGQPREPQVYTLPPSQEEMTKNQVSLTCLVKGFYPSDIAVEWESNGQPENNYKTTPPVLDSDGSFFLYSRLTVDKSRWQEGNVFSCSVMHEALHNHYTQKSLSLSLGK
light: DIQMTQSPSSLSASVGDRVTITCRASENIYSYLAWYQQKPGKSPKLLIYNARTLAEGVPSRFSGSGSGTDFTLTISSLQPEDFATYYCQYHSGSPLPFGGGTKVEIKRTVAAPSVFIFPPSDEQLKSGTASVVCLLNNFYPREAKVQWKVDNALQSGNSQESVTEQDSKDSTYSLSSTLTLSKADYEKHKVYACEVTHQGLSSPVTKSFNRGEC
On to B2, for which the EC50 in experiment [1] came out at 0.01 nM; in experiment [2] it was 0.009 nM; in experiment [3], 0.184 nM; in experiment [4] it was 0.32 nM; in experiment [5], 0.114 nM; in experiment [6], 0.153 nM.

B3: positive antibody Tab5 (antibody, human IgG4 S228P, kappa, F234A L235A, V domains shown)
VH: EVQLVESGGGVVKPGGSLRLSCAASGFTFGTSSMNWVRQAPGKGLEWVAVISFDGTEIHYADSVKGRFTISRDNSKSTVFLQMNSLRPDDTALYYCAKGSGNIYFYSGMDVWGQGTTVTVSS
VL: DIQMTQSPSTLSASVGDRVTITCRAGQSISGWLAWFQQKPGKAPNLLIYETSTLESGVPSRFSGSGSGTEYTLTISSLQPDDFATYYCQQYYSYPLTFGQGTKVEIKR
notes: Variable regions of CPA.7.021 (WO2016134333A1) on human IgG4 (S228P/F234A/L235A/K447A) and human kappa constant regions
As to B3, the binding result in experiment [1], in experiment [2], in experiment [3], in experiment [5] and in experiment [6] was “no binding” throughout. In experiment [4], the concentration for a half-maximal effect (EC50) turned out to be 1.41 nM.
